Measurements taken from the supplement of paper PMC7877785.
± gives the uncertainty stated by the source.

Experiment: self-splicing fitness, log relative to wild type (ln ratio); higher = more splicing; Tetrahymena group I intron in knt gene, E. coli kanamycin selection, DiMSum; sequences stand for … in CUCUCU…GGAGGGAAAAGUUAUCAGGCAUGCACCUGGUAGCUAGUCUUUAAACCAAUAGAUUGCAUCGGUUUAAAAGGCAAGACCGUCAAAUUGCGGGAAAGGGGUCAACAGCCGUUCAGUACCAAGUCUCAGGGGAAACUUUGAGAUGGCCUUGCAAAGGGUAUGGUAAUAAGCUGACGGACAUGGUCCUAACCACGCAGCCAAGUCCUAAGUCAACAGAUCUUCUGUUGAUAUGGAUGCAGUUCACAGACUAAAUGUCGGUCGGGGAAGAUGUAUUCUUCUCAUAAGAUAUAGUCGGACCUCUCCUUAAUGGGAGCUAGCGGAUGAAGUGAUGCAACACUGGAGCCGCUGGGAACUAAUUUGUAUGCGAAAGUAUAUUGAUUAGUUUUGGAGUACUCGUGGUCG
Method in brief: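 Colonies from six replicate transformations of E. coli BL21(DE3) were pooled and amplicon-sequenced on an Illumina HiSeq 2500. The library placed an intron with all eight P1ex-region nucleotides randomised inside the knt kanamycin-resistance gene on pET-22b(+), and cells grew overnight at 37°C or 30°C on LB agar with or without 25 μg/mL kanamycin (plus 100 μg/mL carbenicillin, 50 μM IPTG, 0.2% rhamnose). Fitness is the DiMSum error-weighted combination of wild-type-normalised replicate fold changes, kanamycin versus none.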

Sequence	self-splicing fitness (ln) (30 °C)	self-splicing fitness (ln) (37 °C)
CUGGAGCAAUAUUACGAAAU	-3.11 ± 0.22	-2.72 ± 0.29
CAAUAGCAAUAUUACGACAC	-3.61 ± 0.34	-1.88 ± 0.21
UGGUAGCAAUAUUACGGGCC	-1.4 ± 0.23	–
CCUAAGCAAUAUUACGUGUU	-3.2 ± 0.14	-3.07 ± 0.19
CAUAAGCAAUAUUACGGUUC	-3.7 ± 0.17	-3.08 ± 0.19
AUUAAGCAAUAUUACGAUCC	-0.418 ± 0.11	-0.106 ± 0.19
GGGAAGCAAUAUUACGACAA	-2 ± 0.2	-1.34 ± 0.19
GACCAGCAAUAUUACGCUAG	-1.29 ± 0.087	-0.88 ± 0.1
AUGAAGCAAUAUUACGCUAU	-1.47 ± 0.091	-1.21 ± 0.12
GAUUAGCAAUAUUACGGAGG	-2.45 ± 0.18	-1.81 ± 0.17
AGCAAGCAAUAUUACGCGCA	-0.742 ± 0.07	0.548 ± 0.11
AGCUAGCAAUAUUACGUAGU	-3.32 ± 0.12	-2.85 ± 0.14
CAUGAGCAAUAUUACGUCUC	-2.83 ± 0.22	–
AUUGAGCAAUAUUACGUCUC	–	-2.21 ± 0.42
CGACAGCAAUAUUACGACGG	0.243 ± 0.074	0.0681 ± 0.086
CGCAAGCAAUAUUACGCGAU	-3.15 ± 0.22	-3.83 ± 0.42
AUGGAGCAAUAUUACGCCCA	-1.95 ± 0.27	-1.03 ± 0.26
UCCAAGCAAUAUUACGAGUU	-3.75 ± 0.28	-1.33 ± 0.2
GAGUAGCAAUAUUACGGAAU	-2.46 ± 0.31	-1.32 ± 0.23
GAUGAGCAAUAUUACGGUUU	-2.06 ± 0.097	-1.04 ± 0.13
ACCGAGCAAUAUUACGGAAC	-3.03 ± 0.29	-1.63 ± 0.21
CGUAAGCAAUAUUACGGACU	-0.0269 ± 0.14	-0.0508 ± 0.14
AACUAGCAAUAUUACGCAGC	-3.32 ± 0.25	-2.98 ± 0.43
CAUUAGCAAUAUUACGUGUU	-3.38 ± 0.18	-2.69 ± 0.2
GCGUAGCAAUAUUACGCCGG	-2.21 ± 0.21	-3.92 ± 0.42
GAUAAGCAAUAUUACGCAUU	-2.5 ± 0.32	-2.26 ± 0.35

Sequence	self-splicing fitness (ln) (30 °C)	self-splicing fitness (ln) (37 °C)
AAAGAGCAAUAUUACGCAUU	-3.61 ± 0.19	-1.88 ± 0.21
UCAGAGCAAUAUUACGCUAA	–	1.19 ± 0.3
UCUGAGCAAUAUUACGUGGA	-2.95 ± 0.29	-1.63 ± 0.18
ACCUAGCAAUAUUACGAUAC	-3.47 ± 0.25	-1.65 ± 0.2
CCUGAGCAAUAUUACGCCAA	-2.85 ± 0.44	–
GCAUAGCAAUAUUACGCAAA	-1.88 ± 0.39	-0.928 ± 0.24
CAUUAGCAAUAUUACGGCAC	-4.19 ± 0.46	-1.1 ± 0.17
GUGGAGCAAUAUUACGAAGU	-2.01 ± 0.28	-1.66 ± 0.39
CCAGAGCAAUAUUACGUUAU	-3.68 ± 0.24	-2.2 ± 0.2
UAUGAGCAAUAUUACGGCUC	–	-0.823 ± 0.41
UGAGAGCAAUAUUACGCCCA	-1.49 ± 0.26	–
CGCUAGCAAUAUUACGGAGA	–	-2.2 ± 0.36
CAAGAGCAAUAUUACGCUGG	-3.84 ± 0.3	-1.99 ± 0.19
CCCCAGCAAUAUUACGUACC	-4.07 ± 0.18	-3.36 ± 0.35
CCCAAGCAAUAUUACGAAAG	-3.49 ± 0.17	-3.39 ± 0.31
CCGGAGCAAUAUUACGAAUC	-4.01 ± 0.46	–
UUAGAGCAAUAUUACGUAAG	-2.23 ± 0.097	-1.2 ± 0.1
AAAUAGCAAUAUUACGGUGG	-3.94 ± 0.21	-2.68 ± 0.17
AGAUAGCAAUAUUACGAACC	0.553 ± 0.29	-0.637 ± 0.27
AGGCAGCAAUAUUACGCAUG	-2.69 ± 0.17	-0.809 ± 0.17
CCACAGCAAUAUUACGCGGU	-3.46 ± 0.17	-1.94 ± 0.15
AUAAAGCAAUAUUACGAUCC	-1.21 ± 0.2	-0.716 ± 0.22
CCAAAGCAAUAUUACGCUCA	-3.2 ± 0.14	-2.2 ± 0.16
GAUCAGCAAUAUUACGGACG	-0.737 ± 0.13	-0.212 ± 0.18
GUACAGCAAUAUUACGUGUA	-3.18 ± 0.16	-2.32 ± 0.14
AGCUAGCAAUAUUACGAUUU	-0.0195 ± 0.06	0.214 ± 0.086

Sequence	self-splicing fitness (ln) (30 °C)	self-splicing fitness (ln) (37 °C)
AGGAAGCAAUAUUACGGUGG	-3.94 ± 0.22	-1.64 ± 0.28
AUUCAGCAAUAUUACGUCCU	-1.05 ± 0.066	-0.0115 ± 0.11
AUAUAGCAAUAUUACGGUUG	-3.18 ± 0.2	-2.24 ± 0.26
CUGGAGCAAUAUUACGACCG	-0.607 ± 0.082	0.106 ± 0.14
ACUCAGCAAUAUUACGAGAU	-2.56 ± 0.11	-1.81 ± 0.11
CAGUAGCAAUAUUACGCUGG	-2.5 ± 0.17	-1.34 ± 0.19
UAUCAGCAAUAUUACGAAAU	-2.9 ± 0.16	-0.792 ± 0.15
UCAUAGCAAUAUUACGAGAA	-2.05 ± 0.3	-2.55 ± 0.36
UAAUAGCAAUAUUACGAUGA	-2.56 ± 0.19	-1.48 ± 0.16
CGCAAGCAAUAUUACGGUCG	-2.32 ± 0.11	-0.33 ± 0.1
CCCGAGCAAUAUUACGUUCG	-4.22 ± 0.42	-2.55 ± 0.3
AAACAGCAAUAUUACGUGUG	-2.38 ± 0.057	-1.38 ± 0.07
UACGAGCAAUAUUACGAGUU	-2.32 ± 0.2	-0.892 ± 0.23
CCCUAGCAAUAUUACGAAGG	-4.03 ± 0.21	-2.71 ± 0.23
UACCAGCAAUAUUACGUGGA	-2.89 ± 0.15	-2.08 ± 0.12
AGGGAGCAAUAUUACGAAGU	-2.4 ± 0.37	-2.14 ± 0.32
AGCCAGCAAUAUUACGAGUC	–	-1.61 ± 0.21
GGGGAGCAAUAUUACGGAGC	-2.66 ± 0.33	-1.79 ± 0.2
GACAAGCAAUAUUACGAUGC	-1.44 ± 0.091	-0.732 ± 0.11
UUUGAGCAAUAUUACGCAAU	-3.33 ± 0.48	-1.5 ± 0.46
UAAAAGCAAUAUUACGGCGG	-0.373 ± 0.078	-0.0776 ± 0.11
CGAUAGCAAUAUUACGGACG	-1 ± 0.085	-0.734 ± 0.11
GACGAGCAAUAUUACGAUAU	-3.83 ± 0.33	-2.15 ± 0.32
UACGAGCAAUAUUACGUUAA	-3.08 ± 0.26	-1.57 ± 0.14
GUAGAGCAAUAUUACGCAUC	-1.49 ± 0.13	-1.37 ± 0.15
AGUCAGCAAUAUUACGGAAA	-2.78 ± 0.19	-2 ± 0.15
